Key:
CD28 [1] = biological target: T1, CD28 (Homo sapiens, UniProt P10747); assay: Jurkat/IL2 + CHO/OKT3 +/- PD-L1 reporter assay: PD-L1-dependent CD28 costimulation; format: cell-based; parameters: host or cells: Jurkat cells expressing an IL-2-luciferase reporter; settings: Jurkat/IL2 + CHO/OKT3/PD-L1; for Fold Increase over WT CD80-IgV-Fe / Relative Luciferase Units (RLU), CD80 Cone 5.0 nM: 5.0 nM
In short: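 Jurkat reporter cells (100,000/well) preincubated 15 min at room temperature with test protein, then cocultured 5 h at 37 °C with CHO aAPCs bearing anti-CD3 scFv (OKT3) with or without PD-L1. Luciferase luminescence (RLU) read after lysis-substrate addition.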

huPD-L1 = huPD-L1 (Homo sapiens, UniProt Q9NZQ7); assay: Flow binding to CHO cells stably expressing PD-L1; parameters: huCTLA4 and huPD-L1, full-length mammalian surface expression constructs were generated; expressed in transfected cells; host or cells: CHO cells, lentiviral transduction, sorted to >98% purity; settings: for PD-L1 MFI at 33.3 nM: CHO cells stably expressing PD-L1
In short: (§1)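 Flow cytometry on transfected CHO cells or CD28+ Jurkat/IL2 reporter cells, blocked 20 min in PBS/1% BSA/0.1% azide. Fusion protein 45 min on ice; PE anti-human Fc 1:150, 30 min on ice; fixed in 2% formaldehyde. Read-out PE MFI, EC50 calculated.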

huCTLA4 = huCTLA4 (Homo sapiens, UniProt P16410); assay: Flow binding to CHO cells stably expressing CTLA4; parameters: huCTLA4 and huPD-L1, full-length mammalian surface expression constructs were generated; expressed in transfected cells; host or cells: CHO cells, lentiviral transduction, sorted to >98% purity; settings: for CTLA4 MFI at 33.3 nM: CHO cells stably expressing CTLA4
In short: as §1

CD28 [2] = biological target: T1, CD28; assay: Flow binding to Jurkat/IL2 reporter cells (CD28); parameters: host or cells: Jurkat cells expressing an IL-2-luciferase reporter; settings: for CD28 MFI at 33.3 nM: Jurkats (CD28)
In short: as §1

[3] = Table E19, MFI at 33.3 nM relative to WT CD80 ECD-Fc (Abcam)
[4] = Table E19, ratio of MFI at 33.3 nM
[5] = Table E11, 33.3 nM, listed as WT CD80 ECD-Fc = 1.0

Sequence of huCTLA4 (P16410 36-223): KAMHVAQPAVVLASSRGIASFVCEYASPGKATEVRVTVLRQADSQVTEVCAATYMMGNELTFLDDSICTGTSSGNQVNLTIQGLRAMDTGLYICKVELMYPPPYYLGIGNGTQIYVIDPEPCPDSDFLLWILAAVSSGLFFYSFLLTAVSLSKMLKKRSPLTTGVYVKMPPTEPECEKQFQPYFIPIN
Sequence of huPD-L1 (Q9NZQ7 19-290): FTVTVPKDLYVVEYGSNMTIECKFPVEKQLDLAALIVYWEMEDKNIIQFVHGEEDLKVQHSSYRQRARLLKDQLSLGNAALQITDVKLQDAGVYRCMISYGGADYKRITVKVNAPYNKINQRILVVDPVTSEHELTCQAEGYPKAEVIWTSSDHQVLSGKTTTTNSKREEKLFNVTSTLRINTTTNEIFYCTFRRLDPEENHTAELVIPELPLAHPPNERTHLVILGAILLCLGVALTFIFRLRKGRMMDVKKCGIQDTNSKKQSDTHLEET

Row | Fold Increase over WT CD80-IgV-Fe (CD28 [1]; Table E21) | Relative Luciferase Units (RLU), CD80 Conc 5.0 nM (CD28 [1]; Table E21) | PD-L1 MFI at 33.3 nM (huPD-L1; Table E19, 33.3 nM) | PD-L1 Fold change to WT CD80 (huPD-L1; [3]) | Ratio of PDL1:CD28 (huPD-L1; [4]) | CTLA4 MFI at 33.3 nM (huCTLA4; Table E19, 33.3 nM) | CTLA4 Fold change to WT CD80 (huCTLA4; [3]) | CD28 MFI at 33.3 nM (CD28 [2]; Table E19, 33.3 nM) | CD28 Fold change to WT CD80 (CD28 [2]; [3]) | Fold Increase over WT CD80-IgV-Fe (CD28 [1]; Table E13) | Relative Luciferase Units (RLU), CD80 Cone 5.0 nM (CD28 [1]; Table E13) | PD-L1 Fold change to WT CD80 (huPD-L1; [5]) | PD-L1 MFI at 33.3 nM (huPD-L1; Table E11, 33.3 nM) | Ratio of PDL1:CD28 (huPD-L1; Table E11, MFI at 33.3 nM) | CTLA4 Fold change to WT CD80 (huCTLA4; [5]) | CTLA4 MFI at 33.3 nM (huCTLA4; Table E11, 33.3 nM) | CD28 Fold change to WT CD80 (CD28 [2]; [5]) | CD28 MFI at 33.3 nM (CD28 [2]; Table E11, 33.3 nM) | Molecule
1 | 4.6 fold | 530 RLU | 1895 | 14.8 fold | 6.1 | 30774 | 0.8 fold | 309 | 0.4 fold | – | – | – | – | – | – | – | – | – | M47L (protein) VIHVTKEVKEVATLSCGHNVSVEELAQTRIYWQKEKKMVLTMMSGDLNIWPEYKNRTIFDITNNLSIVILALRPSDEGTYECVVLKYEKDAFKREHLAEVTLSVKAD
2 | 2.5 fold | 292 RLU | 2271 | 17.7 fold | 4.1 | 5334 | 0.1 fold | 556 | 0.8 fold | – | – | – | – | – | – | – | – | – | D46V/V68M (protein) VIHVTKEVKEVATLSCGHNVSVEELAQTRIYWQKEKKMVLTMMSGVMNIWPEYKNRTIFDITNNLSIMILALRPSDEGTYECVVLKYEKDAFKREHLAEVTLSVKAD
3 | 3.0 fold | 342 RLU | 2197 | 17.2 fold | 16.8 | 41896 | 1.0 fold | 131 | 0.2 fold | – | – | – | – | – | – | – | – | – | D46V/L85Q (protein) VIHVTKEVKEVATLSCGHNVSVEELAQTRIYWQKEKKMVLTMMSGVMNIWPEYKNRTIFDITNNLSIVILALRPSDEGTYECVVQKYEKDAFKREHLAEVTLSVKAD
4 | – | – | – | – | – | – | – | – | – | 0.3 | 136 RLU | 77.0 | 3968 | 248.0 | 0.1 | 105 | 0.5 | 16 | T13R/Q33L/E35D/M47V/T62S/V68M/L85M (protein, UniProt P33681 35-288, looked up, variant T13R Q33L E35D M47V T62S V68M L85M) T-lymphocyte activation …: VIHVTKEVKEVARLSCGHNVSVEELAQTRIYWLKDKKMVLTMMSGDVNIWPEYKNRTIFDISNNLSIMILALRPSDEGTYECVVMKYEKDAFKREHLAEVTLSVKADFPTPSISDFEIPTSNIRRIICSTSGGFPEPHLSWLENGEELNAINTTVSQDPETELYAVSSKLDFNMTTNHSFMCLIKYGHLRVNQTFNWNTTKQEHFPDNLLPSWAITLISVNGIFVICCLTYCFAPRCRERRRNERLRRESVRPV
5 | – | – | – | – | – | – | – | – | – | 2.5 | 993 RLU | 372.0 | 19157 | 17.2 | 11.8 | 20652 | 35.4 | 1111 | T13R/Q33R/E35D/M38I/M47L/V68M/E95V/L97Q (protein, UniProt P33681 35-288, looked up, variant T13R Q33R E35D M38I M47L V68M E95V L97Q) T-lymphocyte activation …: VIHVTKEVKEVARLSCGHNVSVEELAQTRIYWRKDKKIVLTMMSGDLNIWPEYKNRTIFDITNNLSIMILALRPSDEGTYECVVLKYEKDAFKRVHQAEVTLSVKADFPTPSISDFEIPTSNIRRIICSTSGGFPEPHLSWLENGEELNAINTTVSQDPETELYAVSSKLDFNMTTNHSFMCLIKYGHLRVNQTFNWNTTKQEHFPDNLLPSWAITLISVNGIFVICCLTYCFAPRCRERRRNERLRRESVRPV
6 | – | – | – | – | – | – | – | – | – | 0.4 | 152 RLU | 87.0 | 4482 | 324.8 | 0.1 | 193 | 0.4 | 13.8 | T13R/Q33R/E35D/M38I/M47L/V68M (protein, UniProt P33681 35-288, looked up, variant T13R Q33R E35D M38I M47L V68M) T-lymphocyte activation …: VIHVTKEVKEVARLSCGHNVSVEELAQTRIYWRKDKKIVLTMMSGDLNIWPEYKNRTIFDITNNLSIMILALRPSDEGTYECVVLKYEKDAFKREHLAEVTLSVKADFPTPSISDFEIPTSNIRRIICSTSGGFPEPHLSWLENGEELNAINTTVSQDPETELYAVSSKLDFNMTTNHSFMCLIKYGHLRVNQTFNWNTTKQEHFPDNLLPSWAITLISVNGIFVICCLTYCFAPRCRERRRNERLRRESVRPV
7 | – | – | – | – | – | – | – | – | – | 2.7 | 1087 RLU | 362.1 | 18649 | 1268.6 | 8.8 | 15505 | 0.5 | 15 | E24D/E35D/M47L/V68M/E95V/L97Q (protein, UniProt P33681 35-288, looked up, variant E24D E35D M47L V68M E95V L97Q) T-lymphocyte activation …: VIHVTKEVKEVATLSCGHNVSVEDLAQTRIYWQKDKKMVLTMMSGDLNIWPEYKNRTIFDITNNLSIMILALRPSDEGTYECVVLKYEKDAFKRVHQAEVTLSVKADFPTPSISDFEIPTSNIRRIICSTSGGFPEPHLSWLENGEELNAINTTVSQDPETELYAVSSKLDFNMTTNHSFMCLIKYGHLRVNQTFNWNTTKQEHFPDNLLPSWAITLISVNGIFVICCLTYCFAPRCRERRRNERLRRESVRPV
8 | – | – | – | – | – | – | – | – | – | 0.4 | 153 RLU | 21.5 | 1106 | 77.9 | 12.6 | 22011 | 0.5 | 14.2 | T13R/Q33R/E35D/M38I/M47L/V68M/L85M (protein, UniProt P33681 35-288, looked up, variant T13R Q33R E35D M38I M47L V68M L85M) T-lymphocyte activation …: VIHVTKEVKEVARLSCGHNVSVEELAQTRIYWRKDKKIVLTMMSGDLNIWPEYKNRTIFDITNNLSIMILALRPSDEGTYECVVMKYEKDAFKREHLAEVTLSVKADFPTPSISDFEIPTSNIRRIICSTSGGFPEPHLSWLENGEELNAINTTVSQDPETELYAVSSKLDFNMTTNHSFMCLIKYGHLRVNQTFNWNTTKQEHFPDNLLPSWAITLISVNGIFVICCLTYCFAPRCRERRRNERLRRESVRPV
9 | – | – | – | – | – | – | – | – | – | 1.0 | 399 RLU | 285.0 | 14680 | 1041.1 | 11.8 | 20738 | 0.4 | 14.1 | T13R/Q33R/E35D/M47L/V68M (protein, CD80 v381 ECD) VIHVTKEVKEVARLSCGHNVSVEELAQTRIYWRKDKKMVLTMMSGDLNIWPEYKNRTIFDITNNLSIMILALRPSDEGTYECVVLKYEKDAFKREHLAEVTLSVKADFPTPSISDFETPTSNIRRIICSTSGGFPEPHLSWLENGEELNAINTTVSQDPETELYAVSSKLDFNMTTNHSFMCLIKYGHLRVNQTFNWNTTKQEHFPDN
10 | – | – | – | – | – | – | – | – | – | 2.9 | 1160 RLU | 367.7 | 18938 | 169.1 | 7.7 | 13438 | 3.6 | 112 | T13R/Q33R/E35D/M47L/V68M/L85M (protein, CD80 v382 ECD) VIHVTKEVKEVARLSCGHNVSVEELAQTRIYWRKDKKMVLTMMSGDLNIWPEYKNRTIFDITNNLSIMILALRPSDEGTYECVVMKYEKDAFKREHLAEVTLSVKADFPTPSISDFETPTSNIRRIICSTSGGFPEPHLSWLENGEELNAINTTVSQDPETELYAVSSKLDFNMTTNHSFMCLIKYGHLRVNQTFNWNTTKQEHFPDN
